From patent US9394371B2, “Antibody-mediated disruption of quorum sensing in bacteria” (The Scripps Research Institute, priority 2007, dated 2016)
Where two headings read alike, the source gives them in different places.

Tests used:
[1] = tested on: S. aureus RN4850, NRS168 and Wood 46; type: cell-based; settings: 24-hour growth period; FIG. 4B
[2] = tested on: agr QS system in S. aureus RN4850; type: cell-based
S. aureus RN4850 [3] = type: cell-based; settings: FIG. 3B
AIP-3 = experiment: Competition ELISA (free native AIP against hapten-BSA coated plates); type: binding, S. aureus
Experimental: (§1) The optimal concentrations of the AP4-BSA conjugate as well as of each mAb were determined. 96 well ELISA plates were coated with the appropriate amount of AP4-BSA conjugate respectively. The plates were blocked with 4% skim milk, washed and mAbs were added at the predetermined optimal concentration. The plates were washed and free antigen, i.e. the native AIPs 1-4, was added to the wells in a concentration series starting at 100 μM. The plate was incubated for 1 hour at 37° C., thoroughly washed, and goat anti-mouse-horseradish peroxidase (HRP) conjugate (Pierce, Rockford, Ill.) was added. After an incubation period of 1 hour at RT, the plate was thoroughly washed again and the HRP substrate (TMB substrate kit; Pierce) was added, the reaction was allowed to develop for 15 minute and stopped by the addition of 2 M H2SO4. The absorbance at 450 nm was read and the values plotted using GraFit (Erithacus Software Ltd). The free antigen concentration at which the absorbance value is 50% of the maximum absorbance was considered the Kd of the antibody for its antigen.
as §1, with “For the competition ELISA analysis, the optimal concentrations” for “The optimal concentrations”, “of the AP1-BSA, AP3-BSA, or AP4-BSA conjugate,” for “of the AP4-BSA conjugate”, “or AP4-BSA conjugate, as well” for “the AP4-BSA conjugate as well”, “amount of AP1-BSA, AP3-BSA, or AP4-BSA conjugate” for “amount of AP4-BSA conjugate”, “blocked with 4 v % skim milk,” for “blocked with 4% skim milk,”, “for 15 minutes and stopped” for “for 15 minute and stopped”

AIP-4 = experiment: as above; type: binding, S. aureus
Experimental: as §1
as §1, with “For the competition ELISA analysis, the optimal concentrations” for “The optimal concentrations”, “of the AP1-BSA, AP3-BSA, or AP4-BSA conjugate,” for “of the AP4-BSA conjugate”, “or AP4-BSA conjugate, as well” for “the AP4-BSA conjugate as well”, “amount of AP1-BSA, AP3-BSA, or AP4-BSA conjugate” for “amount of AP4-BSA conjugate”, “blocked with 4 v % skim milk,” for “blocked with 4% skim milk,”, “for 15 minutes and stopped” for “for 15 minute and stopped”

S. aureus RN4850 [4] = type: cell-based
Jurkat cells = experiment: S. aureus supernatant-induced PARP cleavage (apoptosis), Western blot; type: cell-based, Human; settings: 4 hours, FIG. 5
S. aureus Wood 46 = type: cell-based
AIP-2 = experiment: Competition ELISA (free native AIP against hapten-BSA coated plates); type: binding, S. aureus
S. aureus RN4850 [5] = experiment: Passive immunization against lethal S. aureus challenge; type: in vivo, SKH1 mice; settings: antibody i.p. 2 hours before 3×10^8 S. aureus RN4850 i.p.; FIG. 8
Experimental: FIG. 8 illustrate survival data obtained from passive immunization of mice with AP4-24H11 against S. aureus infection. […] The numbers in parenthesis show number of survivors/number per group. The log rank statistic, p=0.001; n=6 for each group.
S. aureus RN4850 were stored at −80° C. in 20% glycerol/BHI medium, thawed and grown on BHI-agar plates overnight, and three separate colonies sampled to inoculate 2 mL CYGP medium. The inoculum culture was maintained 1 hour at 35° C. without shaking, followed by shaking at 200 rpm for 3 hours. Aliquots of the freshly grown inoculum culture were transferred to 5 mL CYGP medium in 50 mL conical polypropylene tubes (1/20 dilution) followed by shaking at 200 rpm, 35° C. for 3 hours. The bacteria were pelleted by centrifugation at 3,000 rpm (1300×G) for 10 minutes, 4° C. […]
Mab AP4-24H11, isotype-matched control IgG (1 mg each) or DPBS was administered i.p. in DPBS to SKH1 mice (6-9 weeks old; 6 animals per treatment group) followed two hours later by 0.5 mL DPBS^− i.p. containing 3×10^8 S. aureus. The mice were monitored several times on the day of injection and twice each day on subsequent days, observing ambulation, alertness, response to handling and skin temperature measured by infrared thermometry (Raytek MiniTemp MT4) using a 1 cm diameter infrasternal skin site. […]

S. aureus RN4850 [6] = experiment: Static biofilm analysis (crystal violet); type: cell-based; settings: antibody 0.2 mg/mL, FIG. 4C
S. aureus RN4850 [7] = experiment: Dermal infection model in mice (abscess formation); settings: for S. aureus-induced skin injury: flank injection
Experimental: Additional control animals received 200 μL intradermal injections containing Cytodex beads or beads plus antibody. After injections were made the mice were monitored at least three times each day over a period of 4-7 days. At the conclusion of the monitoring period the mice were euthanized and tissues harvested for bacteriologic and histologic analysis.
SKH1 euthymic hairless mice, 6-8 weeks old were obtained from Charles River Laboratories and housed in the biocontainment vivarium for one week before use in experiments. […] Cytodex 1 beads (GE Healthcare 17-0448-01) were suspended (1 gram in 50 mL) in Dulbecco's Phosphate Buffered Saline without calcium/magnesium (Gibco) overnight at 20° C. The supernatant was decanted and the beads washed three times by suspension in DPBS and 1 G sedimentation followed by autoclaving (121° C., 15 psi, 15 minutes). Staphylococcus aureus RN4850 (AIP4) was grown from frozen stock (BHI+20% glycerol) on brain heart infusion agar plates 35° C. overnight. Three representative colonies were combined to inoculate 2 mL CYGP broth, and after overnight incubation without shaking, 0.25 mL of the culture was used to inoculate 5 mL of CYGP followed by incubation at 35° C., 200 rpm for 3 hours. The culture was centrifuged 1,300×G at 4° C. for 20 minutes, the supernatant poured off, and the bacterial pellet was suspended in 1 mL DPBS without calcium/magnesium. The SKH1 received 200 μL intradermal flank injections containing S. aureus (1×10^7 or 1×10^8 bacteria), 4 μL packed volume Cytodex beads, DPBS, anti-AIP4 antibody or control IgG (0.6 or 0.06 mg). Additional control animals received 200 μL intradermal injections containing Cytodex beads or beads plus antibody. After injections were made the mice were monitored at least three times each day over a period of 4-7 days. At the conclusion of the monitoring period the mice were euthanized and tissues harvested for bacteriologic and histologic analysis.
Subcutaneous injections of bacterial suspension or vehicle control were made in the flank of SKH1 hairless mice followed by close monitoring over seven days.

AIP-1 = experiment: Competition ELISA (free native AIP against hapten-BSA coated plates); type: binding, S. aureus
S. aureus USA300 = experiment: Postexposure therapy of lethal systemic MRSA USA300 challenge; type: in vivo, C57BL/6 mice; settings: 1 mg i.p. 2 hours after infection with at least 1×10^8 S. aureus USA300; n=6; FIG. 12
Experimental: Mice were treated with AP1-15B4 (1 mg) or control IgG (1 mg) 2 hours after S. aureus injection (1-3×10^8 i.p.). The numbers in parenthesis show survivors per group, p=0.02; n=6 for each group.
C57BL/6 mice received 1 mg of AP1-15B4 (i.p.), isotype control IgG or PBS 2 hours after they had been infected with at least 1×10^8 S. aureus USA300, an agr I MRSA strain. See Diep et al., Lancet 2006, 367, (9512), 731-739. USA300 is in fact one of the most common community-acquired MRSA (CA-MRSA) strains and represents an increasing threat for civilians and military personnel. Hageman et al., Diagn Microbiol Infect Dis 2008; James et al., Arch Dis Child Fetal Neonatal Ed 2008, 93, (1), F40-4; Tenover et al., J Clin Microbiol 2006, 44, (1), 108-18; Beilman et al., Surg Infect (Larchmt) 2005, 6, (1), 87-92. […] In contrast, only two of the PBS treated control mice (2/6) and 2 of the control IgG treated mice (2/6) survived longer than 24 hours.

S. aureus RN6390B [8] = type: cell-based
S. aureus RN6390B [9] = experiment: Static biofilm analysis (crystal violet); type: cell-based; settings: FIG. 10B

B1: AP4-24H11: murine anti-AIP-4 monoclonal antibody; VH SEQ ID NO: 20, VL SEQ ID NO: 148 (antibody, V domains shown)
VH: EVKPQESGPGLVKPSQSLSLTCTVTGYSITSNYAWNWIRQFPGNKLEWMGFISSYGTTTYNPSLKSRFSITRDTSKNQFFLQLHSVTIEDTGTYFCTREGDYWGQGTTLTVSS
VL: DIVMTQATLSLPVSLGDQASISCRSSQRLVPSNGNIYLHWFLQKPGQSPKLLIYKLSSRFSGVPDRFSGSGSGTDFTLKISRVESEDLGIYFCSQTTHVPYTFGGGTKLEIK
modifications: Murine
In the case of B1, the “growth of S. aureus in presence of antibody” value [1] is reported as “no significant growth changes”, the “eta mRNA fold-change” value [2] is reported as −8.1±1 fold and the “hla mRNA fold-change” value [2] is reported as −5.2±3.1 fold. The “rnaIII mRNA fold-change” value [2] was −77±48 fold, the “saeR mRNA fold-change” value [2] was “+1.4±0.4 fold” and the “sarA mRNA fold-change” value [2] was −2.1±0.6 fold. The “spa mRNA fold-change” value [2] was “+5.7±3.6 fold”, the “decrease of eta transcription” value ([2]; RN4850) was “≈ 10 fold” and the “elevation of spa transcription” value ([2]; RN4850) was 3 to 5 fold. For the same molecule, the “suppression of hla transcription” value ([2]; RN4850) was 3 to 5 fold, the “reduction of rnaIII transcriptional level” value ([2]; RN4850, stationary growth phase) was > 50 fold and the “change in saeR transcription” value ([2]; RN4850, no significant changes) was ≤ 2 fold. For the same molecule, the “change in sarA transcription” value ([2]; RN4850, no significant changes) was ≤ 2 fold, the “hemolytic activity of treated supernatant on blood agar plates” value (S. aureus RN4850 [3]) was “no hemolytic activity was observed” and the Kd (AIP-3; AP4 Sups, read-out: AIP3 wt) was > 25 µM. For the same molecule, the Kd (AIP-3; selected AP4 mAbs, average of at least two measurements, read-out: Binding constant, AIP-3) was > 25 µM, the Kd (AIP-4; AP4 Sups, AP4-BSA coated plates, competing hybridomas re-tested, average, read-out: AIP4 wt) was ~98 nM and the Kd (AIP-4; selected AP4 mAbs, AP4-BSA coated plates, average of at least two measurements, read-out: Binding constant, AIP-4) was ~90 nM. For the same molecule, the “exoprotein expression/secretion (SDS-PAGE)” value (S. aureus RN4850 [4]) was “affects the expression and/or secretion of S. aureus exoproteins”, the “hemolysins secretion (α-hemolysin western analysis)” value (S. aureus RN4850 [4]) was “clear reduction in hemolysins secretion” and the “protein A expression (Western blot)” value (S. aureus RN4850 [4]; 20-24 hours) was “significantly increased”. For the same molecule, the “α-hemolysin expression (Western blot)” value (S. aureus RN4850 [4]; 20-24 hours) was “reduce the α-hemolysin expression”, the “PARP cleavage induced by RN4850 supernatant” value (Jurkat cells; supernatant (1%) of culture grown with antibody) was “prevented RN4850 supernatant (1%)-induced PARP cleavage” and the “PARP cleavage induced by Wood 46 supernatant” value (Jurkat cells; supernatant of culture grown with antibody) was “partially inhibited the effect of Wood 46 supernatant”. For the same molecule, the “α-hemolysin production (Western blot)” value (S. aureus Wood 46) was “notable decrease in α-hemolysin production”, the Kd (AIP-2; AP4 Sups, AP4-BSA coated plates, read-out: AIP2 wt) was > 25 µM and the Kd (AIP-2; selected AP4 mAbs, AP4-BSA coated plates, average of at least two measurements, read-out: Binding constant, AIP-2) was > 25 µM. The “survivors/number per group through the 8-day observation period” value (S. aureus RN4850 [5]) was 6/6, the static biofilm formation (S. aureus RN4850 [6]) was “increased biofilm formation” and the “condition of mice injected with PBS/Cytodex containing antibody, no bacteria” value (S. aureus RN4850 [7]; 0.6 mg antibody, occasional local induration, FIG. 7D) was “remained normal”. The “S. aureus-induced skin injury” value (S. aureus RN4850 [7]; 10^8 bacteria with 0.06 mg antibody) was “not protective”, the “S. aureus-induced skin injury” value (S. aureus RN4850 [7]; 10^8 bacteria with 0.6 mg antibody, 7 day observation) was “skin injury was abrogated” and the Kd (AIP-1; AP4 Sups, AP4-BSA coated plates, competing hybridomas re-tested, average, read-out: AIP1 wt) was ~5 µM. It also gave a Kd (AIP-1; selected AP4 mAbs, AP4-BSA coated plates, average of at least two measurements, read-out: Binding constant, AIP-1) of ~5 µM.

B2: AP1-15B4: murine anti-AIP1 monoclonal antibody; VH SEQ ID NO: 19, VL SEQ ID NO: 147 (antibody, V domains shown)
VH: EVHLVESGGDLVKPGGSLKLSCAASGFAFSDFAMSWVRQTPEKRLEWVAIIKSDDSYTYYPDSVRDRFTISRDNARNTLYLQMTSLRSEDTALYYCTKIYDAYFYAMDYWGQGTSVTVSS
VL: DIVRTQSPLSLSVSLGDQASISCRSSQSLLHSNGNTYLHWYLQKPGQSPKLLIYKVSNRFSGVPDRFSGSGSGTDFTLKISILEAEDLGIYFCSQSTHFPTFGGGTKLEIK
modifications: Murine
In the case of B2, the Kd (AIP-4; AP1 Sups, AP1-BSA coated plates, read-out: AIP4 wt) is reported as > 100000 nM, the “mice surviving through the 48-hour observation period” value (S. aureus USA300) is reported as 4 out of 6 and the “quorum sensing inhibition of group I strains (α-hemolysin expression)” value (S. aureus RN6390B [8]) is reported as “efficiently inhibit quorum sensing”. For the same molecule, the “quorum sensing inhibition, hemolysin expression” value (S. aureus RN6390B [8]) was “most potent activity”, the Kd (AIP-2; AP1 Sups, AP1-BSA coated plates, read-out: AIP2 wt) was > 100 µM and the static biofilm formation (S. aureus RN6390B [9]) was “increase in biofilm formation”. For the same molecule, the Kd (AIP-1; AP1 Sups, AP1-BSA coated plates, read-out: AIP1 wt) was ~0.8 µM.
